Measured values as given in patent US6713604 (TEXAS BIOTECHNOLOGY, dated 2004).
Bridges are numbered along the chain shown (N, C = ends). Where no end group is shown, it is not given here. [ ]: non-standard residue; d: D form.

B1: SEQ ID NO 36 (peptide)
peptide: CEWLDYC-OH
modifications: disulfide 1-7; N-terminus assumed
SMILES: CC(C)C[C@@H]1NC(=O)[C@H](Cc2c[nH]c3ccccc23)NC(=O)[C@H](CCC(=O)O)NC(=O)[C@@H](N)CSSC[C@@H](C(=O)O)NC(=O)[C@H](Cc2ccc(O)cc2)NC(=O)[C@H](CC(=O)O)NC1=O
notes: Disulfide cyclic peptide; also called Cys-Glu-Trp-Leu-Asp-Tyr-Cys-acid
B2: SEQ ID NO 33 (peptide)
peptide: CEWLDVC-NH2
modifications: disulfide 1-7; N-terminus assumed
SMILES: CC(C)C[C@@H]1NC(=O)[C@H](Cc2c[nH]c3ccccc23)NC(=O)[C@H](CCC(=O)O)NC(=O)[C@@H](N)CSSC[C@@H](C(N)=O)NC(=O)[C@H](C(C)C)NC(=O)[C@H](CC(=O)O)NC1=O
notes: Disulfide cyclic peptide; also called Cys-Glu-Trp-Leu-Asp-Val-Cys-amide
B3: SEQ ID NO 34 (peptide)
peptide: CEWLDVC-OH
modifications: disulfide 1-7; N-terminus assumed
SMILES: CC(C)C[C@@H]1NC(=O)[C@H](Cc2c[nH]c3ccccc23)NC(=O)[C@H](CCC(=O)O)NC(=O)[C@@H](N)CSSC[C@@H](C(=O)O)NC(=O)[C@H](C(C)C)NC(=O)[C@H](CC(=O)O)NC1=O
notes: Disulfide cyclic peptide; also called Cys-Glu-Trp-Leu-Asp-Val-Cys-acid
B4: SEQ ID NO 37 (peptide)
peptide: CSFLDYC-OH
modifications: disulfide 1-7; N-terminus assumed
SMILES: CC(C)C[C@@H]1NC(=O)[C@H](Cc2ccccc2)NC(=O)[C@H](CO)NC(=O)[C@@H](N)CSSC[C@@H](C(=O)O)NC(=O)[C@H](Cc2ccc(O)cc2)NC(=O)[C@H](CC(=O)O)NC1=O
notes: Disulfide cyclic peptide; also called Cys-Ser-Phe-Leu-Asp-Tyr-Cys-acid
B5: SEQ ID NO 31 (peptide)
peptide: CWLDVC-OH
modifications: disulfide 1-6; N-terminus assumed
SMILES: CC(C)C[C@@H]1NC(=O)[C@H](Cc2c[nH]c3ccccc23)NC(=O)[C@@H](N)CSSC[C@@H](C(=O)O)NC(=O)[C@H](C(C)C)NC(=O)[C@H](CC(=O)O)NC1=O
notes: Disulfide cyclic peptide; also called Cys-Trp-Leu-Asp-Val-Cys-acid
B6: SEQ ID NO 18 (peptide)
peptide: Ac-CWLDVC-OH
modifications: disulfide 1-6
SMILES: CC(=O)N[C@H]1CSSC[C@@H](C(=O)O)NC(=O)[C@H](C(C)C)NC(=O)[C@H](CC(=O)O)NC(=O)[C@H](CC(C)C)NC(=O)[C@H](Cc2c[nH]c3ccccc23)NC1=O
notes: Disulfide cyclic peptide; also called Ac-Cys-Trp-Leu-Asp-Val-Cys-acid
B7: SEQ ID NO 25 (peptide)
peptide: CWVDVC-OH
modifications: disulfide 1-6; N-terminus assumed
SMILES: CC(C)[C@@H]1NC(=O)[C@H](CC(=O)O)NC(=O)[C@H](C(C)C)NC(=O)[C@H](Cc2c[nH]c3ccccc23)NC(=O)[C@@H](N)CSSC[C@@H](C(=O)O)NC1=O
notes: Disulfide cyclic peptide; also called Cys-Trp-Val-Asp-Val-Cys-acid
B8: SEQ ID NO 19 (peptide)
peptide: CYLDVC-OH
modifications: disulfide 1-6; N-terminus assumed
SMILES: CC(C)C[C@@H]1NC(=O)[C@H](Cc2ccc(O)cc2)NC(=O)[C@@H](N)CSSC[C@@H](C(=O)O)NC(=O)[C@H](C(C)C)NC(=O)[C@H](CC(=O)O)NC1=O
notes: Disulfide cyclic peptide; also called Cys-Tyr-Leu-Asp-Val-Cys-acid
B9: SEQ ID NO 28 (peptide)
peptide: CWLDLC-OH
modifications: disulfide 1-6; N-terminus assumed
SMILES: CC(C)C[C@@H]1NC(=O)[C@H](CC(=O)O)NC(=O)[C@H](CC(C)C)NC(=O)[C@H](Cc2c[nH]c3ccccc23)NC(=O)[C@@H](N)CSSC[C@@H](C(=O)O)NC1=O
notes: Disulfide cyclic peptide; also called Cys-Trp-Leu-Asp-Leu-Cys-acid
B10: SEQ ID NO 23 (peptide)
peptide: CWIDVC-OH
modifications: disulfide 1-6; N-terminus assumed
SMILES: CC[C@H](C)[C@@H]1NC(=O)[C@H](Cc2c[nH]c3ccccc23)NC(=O)[C@@H](N)CSSC[C@@H](C(=O)O)NC(=O)[C@H](C(C)C)NC(=O)[C@H](CC(=O)O)NC1=O
notes: Disulfide cyclic peptide; also called Cys-Trp-Ile-Asp-Val-Cys-acid
B11: SEQ ID NO 29 (peptide)
peptide: CWLDYC-OH
modifications: disulfide 1-6; N-terminus assumed
SMILES: CC(C)C[C@@H]1NC(=O)[C@H](Cc2c[nH]c3ccccc23)NC(=O)[C@@H](N)CSSC[C@@H](C(=O)O)NC(=O)[C@H](Cc2ccc(O)cc2)NC(=O)[C@H](CC(=O)O)NC1=O
notes: Disulfide cyclic peptide; also called Cys-Trp-Leu-Asp-Tyr-Cys-acid
B12: SEQ ID NO 21 (peptide)
peptide: CFLDVC-OH
modifications: disulfide 1-6; N-terminus assumed
SMILES: CC(C)C[C@@H]1NC(=O)[C@H](Cc2ccccc2)NC(=O)[C@@H](N)CSSC[C@@H](C(=O)O)NC(=O)[C@H](C(C)C)NC(=O)[C@H](CC(=O)O)NC1=O
notes: Disulfide cyclic peptide; also called Cys-Phe-Leu-Asp-Val-Cys-acid
B13: SEQ ID NO 24 (peptide)
peptide: CWMDVC-OH
modifications: disulfide 1-6; N-terminus assumed
SMILES: CSCC[C@@H]1NC(=O)[C@H](Cc2c[nH]c3ccccc23)NC(=O)[C@@H](N)CSSC[C@@H](C(=O)O)NC(=O)[C@H](C(C)C)NC(=O)[C@H](CC(=O)O)NC1=O
notes: Disulfide cyclic peptide; also called Cys-Trp-Met-Asp-Val-Cys-acid
B14: SEQ ID NO 22 (peptide)
peptide: CWLDWC-OH
modifications: disulfide 1-6; N-terminus assumed
SMILES: CC(C)C[C@@H]1NC(=O)[C@H](Cc2c[nH]c3ccccc23)NC(=O)[C@@H](N)CSSC[C@@H](C(=O)O)NC(=O)[C@H](Cc2c[nH]c3ccccc23)NC(=O)[C@H](CC(=O)O)NC1=O
notes: Disulfide cyclic peptide; also called Cys-Trp-Leu-Asp-Trp-Cys-acid
B15: SEQ ID NO 26 (peptide)
peptide: CWKDVC-OH
modifications: disulfide 1-6; N-terminus assumed
SMILES: CC(C)[C@@H]1NC(=O)[C@H](CC(=O)O)NC(=O)[C@H](CCCCN)NC(=O)[C@H](Cc2c[nH]c3ccccc23)NC(=O)[C@@H](N)CSSC[C@@H](C(=O)O)NC1=O
notes: Disulfide cyclic peptide; also called Cys-Trp-Lys-Asp-Val-Cys-acid
B16: SEQ ID NO 20 (peptide)
peptide: CWLDFC-OH
modifications: disulfide 1-6; N-terminus assumed
SMILES: CC(C)C[C@@H]1NC(=O)[C@H](Cc2c[nH]c3ccccc23)NC(=O)[C@@H](N)CSSC[C@@H](C(=O)O)NC(=O)[C@H](Cc2ccccc2)NC(=O)[C@H](CC(=O)O)NC1=O
notes: Disulfide cyclic peptide; also called Cys-Trp-Leu-Asp-Phe-Cys-acid
B17: SEQ ID NO 32 (peptide)
peptide: [dC]WLDVC-OH
modifications: disulfide 1-6; N-terminus assumed
SMILES: CC(C)C[C@@H]1NC(=O)[C@H](Cc2c[nH]c3ccccc23)NC(=O)[C@H](N)CSSC[C@@H](C(=O)O)NC(=O)[C@H](C(C)C)NC(=O)[C@H](CC(=O)O)NC1=O
notes: Disulfide cyclic peptide; also called dCys-Trp-Leu-Asp-Val-Cys-acid
B18: SEQ ID NO 17 (peptide)
peptide: C[dW]LDVC-OH
modifications: disulfide 1-6; N-terminus assumed
SMILES: CC(C)C[C@@H]1NC(=O)[C@@H](Cc2c[nH]c3ccccc23)NC(=O)[C@@H](N)CSSC[C@@H](C(=O)O)NC(=O)[C@H](C(C)C)NC(=O)[C@H](CC(=O)O)NC1=O
notes: Disulfide cyclic peptide; also called Cys-dTrp-Leu-Asp-Val-Cys-acid
B19: SEQ ID NO 16 (peptide)
peptide: CSWLDVC
modifications: disulfide 1-7
notes: Disulfide cyclic peptide; also called Cys-Ser-Trp-Leu-Asp-Val-Cys

target: T1, integrin α4β1 (human, UniProt P13612 34-1032; P05556 21-798); assay: inhibition of HL-60 cell (α4β1) binding to VCAM-IgG coated beads, fluorimetry
T1 construct: whole, on cells; also called VLA-4; very late antigen-4
T1 sequence (P13612 34-1032, chain 1 of 2): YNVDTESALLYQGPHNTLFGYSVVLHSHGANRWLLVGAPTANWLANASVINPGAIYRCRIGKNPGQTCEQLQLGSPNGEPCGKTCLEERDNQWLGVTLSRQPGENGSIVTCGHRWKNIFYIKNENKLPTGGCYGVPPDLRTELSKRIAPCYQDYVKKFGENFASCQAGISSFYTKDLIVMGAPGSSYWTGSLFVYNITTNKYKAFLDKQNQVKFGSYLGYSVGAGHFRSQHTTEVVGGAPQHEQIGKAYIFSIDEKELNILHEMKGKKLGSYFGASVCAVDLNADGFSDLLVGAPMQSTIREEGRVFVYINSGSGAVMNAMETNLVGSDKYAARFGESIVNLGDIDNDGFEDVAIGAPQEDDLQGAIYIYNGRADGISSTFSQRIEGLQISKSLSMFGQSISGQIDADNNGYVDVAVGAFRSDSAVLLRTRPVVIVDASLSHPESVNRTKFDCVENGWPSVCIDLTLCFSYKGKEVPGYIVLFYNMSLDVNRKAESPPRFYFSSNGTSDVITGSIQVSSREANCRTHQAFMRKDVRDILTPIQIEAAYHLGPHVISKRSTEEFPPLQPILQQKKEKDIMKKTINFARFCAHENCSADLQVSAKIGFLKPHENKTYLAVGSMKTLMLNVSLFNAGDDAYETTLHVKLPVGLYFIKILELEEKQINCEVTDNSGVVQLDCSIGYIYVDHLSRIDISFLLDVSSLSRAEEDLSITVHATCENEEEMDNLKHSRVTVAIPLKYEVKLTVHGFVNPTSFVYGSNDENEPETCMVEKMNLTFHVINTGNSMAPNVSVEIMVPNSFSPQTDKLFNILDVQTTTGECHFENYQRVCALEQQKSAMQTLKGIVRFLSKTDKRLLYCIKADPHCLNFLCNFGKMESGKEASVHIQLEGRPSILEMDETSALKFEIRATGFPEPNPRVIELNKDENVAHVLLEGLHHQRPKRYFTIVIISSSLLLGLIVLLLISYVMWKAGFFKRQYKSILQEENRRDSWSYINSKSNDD
T1 sequence (P05556 21-798, chain 2 of 2): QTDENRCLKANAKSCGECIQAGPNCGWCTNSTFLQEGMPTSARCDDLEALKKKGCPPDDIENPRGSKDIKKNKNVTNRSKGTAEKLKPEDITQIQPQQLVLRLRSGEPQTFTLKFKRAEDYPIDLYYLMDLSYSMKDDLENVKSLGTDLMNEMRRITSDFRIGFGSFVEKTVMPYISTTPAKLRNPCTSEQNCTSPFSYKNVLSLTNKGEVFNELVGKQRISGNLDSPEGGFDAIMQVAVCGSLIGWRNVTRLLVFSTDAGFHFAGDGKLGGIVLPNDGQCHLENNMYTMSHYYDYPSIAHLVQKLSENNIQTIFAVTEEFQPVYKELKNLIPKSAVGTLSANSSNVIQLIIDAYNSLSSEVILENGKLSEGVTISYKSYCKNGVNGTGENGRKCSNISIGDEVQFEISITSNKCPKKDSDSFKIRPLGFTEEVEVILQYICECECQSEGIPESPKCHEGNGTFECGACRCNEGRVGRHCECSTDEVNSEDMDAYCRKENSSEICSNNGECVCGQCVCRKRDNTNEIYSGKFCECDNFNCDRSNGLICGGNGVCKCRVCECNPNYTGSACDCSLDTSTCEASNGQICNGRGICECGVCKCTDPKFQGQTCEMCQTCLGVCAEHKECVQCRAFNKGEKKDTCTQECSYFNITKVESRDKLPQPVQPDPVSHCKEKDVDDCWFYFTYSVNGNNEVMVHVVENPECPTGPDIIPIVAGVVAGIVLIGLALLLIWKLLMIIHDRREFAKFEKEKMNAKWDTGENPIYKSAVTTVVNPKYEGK
Description: The media was collected and active protein was purified by immunoprecipitation using Dynal magnetic polystyrene beads coated with goat anti-mouse IgG. Following immunoprecipitation, the beads bound cells that expressed the integrin α_4β_1 such as Ramos and HL-60.
HL-60 cells were fluorescently labeled with Calcein AM C-3099 (Molecular Probes) and resuspended in 1 ml of binding buffer (Hank's balanced salt solution, pH 7.4, 1.0 mM CaCl_2, 1.0 mM MgCl_2). The beads (10 µl, 4×10^6 beads/ml) were placed in wells of a 96-well microtiter dish with 10 µl of peptide at various concentrations. The beads were incubated with 10 µl of labeled cells (10^7 cells/ml) for 10 min at room temperature. Following immobilization of the beads onto the plastic with a magnet, unbound cells were removed by washing three times with binding buffer. The remaining bound cells were lysed in 50 mM Tris, pH 7.4, 5.0 mM EDTA, 1.0% NP-40 and quantitated by fluorimetry using a Millipore Cytofluor 2350 fluorimeter. Dose response curves were calculated and IC$50$ values determined. Alternatively, the percent adhesion was determined at a single peptide concentration for comparison among peptides.

peptide concentration that significantly inhibits binding | Binder
< 10 µM | B1
< 10 µM | B2
< 10 µM | B3
< 10 µM | B4
< 10 µM | B5
< 10 µM | B6
< 10 µM | B7
< 10 µM | B8
< 10 µM | B9
< 10 µM | B10
< 10 µM | B11
< 10 µM | B12
< 10 µM | B13
< 10 µM | B14
< 10 µM | B15
< 10 µM | B16
< 10 µM | B17
< 10 µM | B18
< 10 µM | B19
